Assay [1] has as its target T1, CD73 mutants having substitutions at residues A99, E129, K133, E134 and A135 (Homo sapiens, UniProt P21589, A135S/A99S/E129A/E134N/K133A).
T1 sequence (P21589 27-549 A99S/E129A/K133A/E134N/A135S): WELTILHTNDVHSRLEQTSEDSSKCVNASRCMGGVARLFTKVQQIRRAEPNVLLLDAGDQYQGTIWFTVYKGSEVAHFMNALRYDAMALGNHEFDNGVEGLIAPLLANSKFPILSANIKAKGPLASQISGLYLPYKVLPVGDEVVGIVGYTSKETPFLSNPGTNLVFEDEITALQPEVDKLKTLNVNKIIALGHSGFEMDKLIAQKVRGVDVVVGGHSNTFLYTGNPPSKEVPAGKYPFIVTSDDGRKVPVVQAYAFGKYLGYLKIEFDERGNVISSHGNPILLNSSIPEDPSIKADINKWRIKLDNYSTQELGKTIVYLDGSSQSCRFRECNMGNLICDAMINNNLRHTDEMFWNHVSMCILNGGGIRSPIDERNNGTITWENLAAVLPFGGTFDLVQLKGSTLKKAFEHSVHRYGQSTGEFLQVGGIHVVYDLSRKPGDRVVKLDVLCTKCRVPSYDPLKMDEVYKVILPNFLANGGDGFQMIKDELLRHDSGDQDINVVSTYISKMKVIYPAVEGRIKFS
Particulars: cited from earlier work.

The target of assay [2] is T2, CD73 mutants having a substitution at residue K136 (Homo sapiens, UniProt P21589, K136A).
T2 sequence (P21589 27-549 K136A): T1 sequence (P21589 27-549 A99S/E129A/K133A/E134N/A135S) with S73A, A103E, A107K, N108E, S109A, K110A
Particulars: cited from earlier work.

Assay [3] deals with CD73 mutants having a substitution at residues K97, E125, Q153 and K330. Conditions: cited from earlier work.
Assay [4] concerns the target T3, soluble recombinant human CD39 protein (Homo sapiens, UniProt P49961).
T3 construct: made in house; host or cells: CHO cells
T3 sequence (P49961 with tags, fused parts or gaps): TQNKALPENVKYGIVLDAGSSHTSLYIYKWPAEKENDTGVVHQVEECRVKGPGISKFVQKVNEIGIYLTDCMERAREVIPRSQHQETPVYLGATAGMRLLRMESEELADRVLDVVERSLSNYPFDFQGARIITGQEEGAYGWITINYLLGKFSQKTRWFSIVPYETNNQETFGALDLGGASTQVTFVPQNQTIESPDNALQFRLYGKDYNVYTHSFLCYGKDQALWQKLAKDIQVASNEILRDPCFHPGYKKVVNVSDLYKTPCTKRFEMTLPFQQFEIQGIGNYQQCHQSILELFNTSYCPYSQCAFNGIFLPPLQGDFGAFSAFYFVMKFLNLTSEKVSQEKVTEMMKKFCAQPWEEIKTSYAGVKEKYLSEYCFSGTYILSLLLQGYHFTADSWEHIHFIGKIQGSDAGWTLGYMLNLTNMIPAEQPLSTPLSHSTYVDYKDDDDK
Description: Inhibition of the enzymatic (ATPase) activity of soluble CD39, Cell Titer Glo. Format: biochemical. Conditions: 400 ng/ml soluble CD39, 20 μM ATP. The procedure: The ability of an antibody to inhibit soluble recombinant human CD39 protein can be tested by detecting ATP after incubating test antibody with soluble CD39 protein (e.g., the CD39 protein having the amino acid sequence of SEQ ID NO: 5, as produced in Example 1, optionally further comprising a purification tag or other functional or non-functional non-CD39-derived amino acid sequence). See, e.g., Example 1. Briefly, ATP can be quantified using the Cell Titer Glo™ (Promega), in an assay in which dose ranges of test antibody are incubated with soluble recombinant human CD39 protein described in Example 1, for 1 hour at 37° C. 20 μM ATP are added to the plates for 30 additional minutes at 37° C. before addition of CTG reagent. Emitted light is quantified using an Enspire™ luminometer after a short incubation period of 5 min in the dark.
The inhibition by antibodies of the enzymatic activity of soluble CD39 protein produced was evaluated using Cell Titer Glo™ (Promega, reference G7571) that allows assessment of ATP hydrolysis through use of a reagent that generates a luminescent signal proportional to the amount of ATP present. In this way, inhibition of the soluble-CD39-mediated ATP hydrolysis can be assessed. Briefly, dose ranges of anti-CD39 antibodies from 100 μg/ml to 6×10^−3 μg/ml were incubated with 400 ng/ml of soluble recombinant human CD39 protein having the amino acid sequence described in the Methods section (SEQ ID NO: 54), for 1h at 37° C. 20 μM ATP was added to the plates for 30 additional minutes at 37° C. before addition of CTG (Cell Titer Glo) reagent. Emitted light was quantified using an Enspire™ luminometer after a short incubation period of 5 min in the dark. Anti-CD39 antibody efficacy was determined by comparing emitted light in presence of antibody with ATP alone (maximal light emission) and ATP together with soluble CD39 protein (minimal light emission).
Background: In ATP-based viability assays light output follows the ATP content of the culture.

The next assay deals with T4, CD39 mutant 11 (Homo sapiens, UniProt P49961, DUP378-378/E375A/K376G/L372K/N371K/V377S).
T4 construct: expressed in transfected cells; host or cells: HEK-293T cells
T4 sequence (P49961 with tags, fused parts or gaps N371K/L372K/E375A/K376G/DUP378-378): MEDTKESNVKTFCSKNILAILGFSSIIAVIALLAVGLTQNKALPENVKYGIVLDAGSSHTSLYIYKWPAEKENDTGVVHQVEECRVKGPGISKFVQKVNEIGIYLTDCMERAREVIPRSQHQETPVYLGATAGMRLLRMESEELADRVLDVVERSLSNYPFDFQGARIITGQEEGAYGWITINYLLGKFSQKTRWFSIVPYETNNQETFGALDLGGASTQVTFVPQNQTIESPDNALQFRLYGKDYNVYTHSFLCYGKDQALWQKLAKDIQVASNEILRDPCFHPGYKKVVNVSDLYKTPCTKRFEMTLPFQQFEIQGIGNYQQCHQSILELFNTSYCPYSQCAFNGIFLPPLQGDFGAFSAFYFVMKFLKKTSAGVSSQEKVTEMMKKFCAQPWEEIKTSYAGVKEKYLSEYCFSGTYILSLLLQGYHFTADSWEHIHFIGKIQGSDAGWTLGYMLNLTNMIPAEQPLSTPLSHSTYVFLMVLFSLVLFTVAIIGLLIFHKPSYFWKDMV
Kind of assay: Epitope mapping by flow cytometry on Hek-293T cells expressing CD39 mutant 11. Format: binding. Conditions: insertion 377V, V377S (Table 1). How it is done:
(§1) CD39 mutants were generated by PCR. The sequences amplified were run on agarose gel and purified using the Macherey Nagel PCR Clean-Up Gel Extraction kit (reference 740609). The purified PCR products generated for each mutant were then ligated into an expression vector, with the ClonTech InFusion system. The vectors containing the mutated sequences were prepared as Miniprep and sequenced. After sequencing, the vectors containing the mutated sequences were prepared as Midiprep using the Promega PureYield™ Plasmid Midiprep System. HEK293T cells were grown in DMEM medium (Invitrogen), transfected with vectors using Invitrogen's Lipofectamine 2000 and incubated at 37° C. in a CO2 incubator for 48 hours prior to testing for transgene expression. The targeted amino acid mutations in the table 1 below are shown using numbering of SEQ ID NO: 2.
(§2) In order to define the epitopes of anti-CD39 antibodies, we designed CD39 mutants defined by substitutions of amino acids exposed at the molecular surface over the surface of CD39.
(§3) Mutants were transfected in Hek-293T cells, as shown in the table 1, using numbering of SEQ ID NO: 2. Dose-ranges of test antibodies (10-2.5-0.625-0.1563-0.0391-0.0098-0.0024-0.0006 μg/ml) are tested on the 20 generated mutants by flow cytometry.
In general terms: In flow cytometry, cells or beads pass a laser one at a time.

In assay [5] the test system is other CD39 mutants of Table 1. Description: Epitope mapping by flow cytometry on the other CD39 mutants of Table 1. Format: binding, human. The procedure: as §1, §2
Mutant 5 contains amino acid substitutions at residues Q96, N99, E143 and R147.
as §3

Positions count from the first letter of the chain named.

B1: 3C12: anti-CD73 antibody, VH and VL of SEQ ID NOS: 44 and 45 (antibody, listed as Mus musculus, V domains shown)
VH: QIQLQQSGPELVKPGASVKVSCKASGYAFASYNMNWVKQSHGKSLDWIGYIDPYNGGSSYNLTFKGKATLTVDKSSTTAYMHLNSLTSEDSAVYYCARGYGNYKAWFAYWGQGTLVTVSAASTKGP
VL: DVVMTQTPKFLLVSAGDRVTITCKASQSVSNDVAWYQQKPGQSPKLLIYYASTRYTGVPDRFTGSGYGTDFTFTISTVQAEDLAVYFCQQDYSSLTFGAGTKLELKRTVAAP
With B1, the “binding to CD73 mutants having substitutions at residues A99, E129, K133, E134 and A135” value (“binding … E134 and A135” below) in assay [1] is “lose binding”. Further, the “binding to CD73 mutants having a substitution at residue K136” value (from here on “binding … at residue K136”) in assay [2] is on record as “lose binding”. Further, the “binding to CD73 mutants having a substitution at residues K97, E125, Q153 and K330” value (“binding … Q153 and K330” for short) in assay [3] was “lose binding”.

B2: 8C7: anti-CD73 antibody, VH and VL of SEQ ID NOS: 42 and 43 (antibody, listed as Mus musculus, V domains shown)
VH: B1 VH with Q1E, I2V
VL: B1 VL with D1S, V2I, Q6P
Regarding B2, the “binding … E134 and A135” value in assay [1] is listed as “lose binding”. Also, in assay [2], the “binding … at residue K136” value was “lose binding”. Moreover, in assay [3], the “binding … Q153 and K330” value is recorded as “lose binding”.

B3: I-399: anti-CD39 antibody, VH SEQ ID NO: 30, VL SEQ ID NO: 31 (antibody, listed as Mus musculus, V domains shown)
VH: PVQLQQPGAEVVMPGASVKLSCKASGYTFTSFWMNWMRQRPGQGLEWIGEIDPSDFYTNSNQRFKGKATLTVDKSSSTAYMQLSSLTSEDSAVYFCARGDFGWYFDVWGTGTSVTVSS
VL: EIVLTQSPTTMTSSPGEKITFTCSASSSINSNYLHWYQQKPGFSPKLLIYRTSNLASGVPTRFSGSGSGTSYSLTIGTMEAEDVATYYCQQGSSLPRTFGGGTKLEIK
For B3, the “inhibition of the enzymatic (ATPase) activity of soluble CD39 protein” value in assay [4] is reported as “showed inhibition”. For the same molecule, the “binding to cells expressing mutant 11 of CD39” value with CD39 mutant 11 is “loss of binding”. Moreover, in assay [5], the “binding to any other mutant of the 20 CD39 mutants” value is listed as “without loss of binding”.

B4: 11E1: anti-CD73 antibody, VH and VL of SEQ ID NOS: 40 and 41 (antibody, listed as Mus musculus, V domains shown)
VH: EIQLQQSGPELVKPGASVKVSCKASGYAFTSYNMYWVKQSHGKSLEWIGYIDPYNGGTSYNQKFKGKATLTVDKSSSTAYMHLNSLTSEDSAVYYCARGYGNYKAWFAYWGQGTLVTVSA
VL: DAVMTQTPKFLLVSAGDRVTITCKASQSVTNDVAWYQQKPGQSPKLLIYYASNRYTGVPDRFTGSGYGTDFTFTISTVQAEDLAVYFCQQDYSSLTFGAGTKLELK
Regarding B4, the “binding … E134 and A135” value in assay [1] was “lose binding”. Moreover, the “binding … at residue K136” value in assay [2] is listed as “lose binding”. The “binding … Q153 and K330” value in assay [3] was “lose binding”.

B5: 6E1: anti-CD73 antibody, VH and VL of SEQ ID NOS: 3 and 4 (WO2016/055609) (antibody, listed as Mus musculus, V domains shown)
VH: B4 VH with I2F, S44R, T58S, S85N, G101N
VL: B4 VL with D1S, A2I, V78M
Consider B5, for which, in assay [1], the “binding … E134 and A135” value is “lose binding”. Besides, in assay [2], the “binding … at residue K136” value is recorded as “lose binding”. The “binding … Q153 and K330” value in assay [3] is listed as “lose binding”.

Source of the values: patent US20230099801A1, “RESTORATION OF T CELL ACTIVITY VIA THE CD39/CD73 AXIS” (INNATE PHARMA, priority 2017, published 2023).
